Experimental findings from patent US20210017280A1 (EUREKA THERAPEUTICS, published 2021) are described below.

The target of test [1] is T1, domains 5-7 of CD22 conjugated to green fluorescent protein, expressed in Jurkat cells (human, UniProt P20273 414-687).
T1 construct: also called Jurkat-CD22 (D5-D7)-GFP; not shown: membrane anchor and green fluorescent protein (GFP) fusion
T1 sequence: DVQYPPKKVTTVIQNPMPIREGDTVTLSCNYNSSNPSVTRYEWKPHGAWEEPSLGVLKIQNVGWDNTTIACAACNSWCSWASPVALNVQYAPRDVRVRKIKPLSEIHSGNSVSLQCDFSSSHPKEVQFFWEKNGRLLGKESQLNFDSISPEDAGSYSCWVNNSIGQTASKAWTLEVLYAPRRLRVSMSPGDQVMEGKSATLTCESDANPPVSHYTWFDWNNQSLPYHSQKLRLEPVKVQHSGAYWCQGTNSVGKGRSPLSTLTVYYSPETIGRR
Description: flow cytometry, phage clone on cells. (In general: A flow cytometer gives signals particle by particle.)

Test [2] addresses T2, full-length human CD22 (human, UniProt P20273 20-847).
T2 construct: CD22 on the cell surface: natural on Raji and NALM-6 cells, introduced in Jurkat cells (full-length) and in K562+CD22 cells; The K562 construct is not described further; also called Jurkat-CD22-full; CD22 on Raji, NALM-6 and K562+CD22 cells
T2 sequence: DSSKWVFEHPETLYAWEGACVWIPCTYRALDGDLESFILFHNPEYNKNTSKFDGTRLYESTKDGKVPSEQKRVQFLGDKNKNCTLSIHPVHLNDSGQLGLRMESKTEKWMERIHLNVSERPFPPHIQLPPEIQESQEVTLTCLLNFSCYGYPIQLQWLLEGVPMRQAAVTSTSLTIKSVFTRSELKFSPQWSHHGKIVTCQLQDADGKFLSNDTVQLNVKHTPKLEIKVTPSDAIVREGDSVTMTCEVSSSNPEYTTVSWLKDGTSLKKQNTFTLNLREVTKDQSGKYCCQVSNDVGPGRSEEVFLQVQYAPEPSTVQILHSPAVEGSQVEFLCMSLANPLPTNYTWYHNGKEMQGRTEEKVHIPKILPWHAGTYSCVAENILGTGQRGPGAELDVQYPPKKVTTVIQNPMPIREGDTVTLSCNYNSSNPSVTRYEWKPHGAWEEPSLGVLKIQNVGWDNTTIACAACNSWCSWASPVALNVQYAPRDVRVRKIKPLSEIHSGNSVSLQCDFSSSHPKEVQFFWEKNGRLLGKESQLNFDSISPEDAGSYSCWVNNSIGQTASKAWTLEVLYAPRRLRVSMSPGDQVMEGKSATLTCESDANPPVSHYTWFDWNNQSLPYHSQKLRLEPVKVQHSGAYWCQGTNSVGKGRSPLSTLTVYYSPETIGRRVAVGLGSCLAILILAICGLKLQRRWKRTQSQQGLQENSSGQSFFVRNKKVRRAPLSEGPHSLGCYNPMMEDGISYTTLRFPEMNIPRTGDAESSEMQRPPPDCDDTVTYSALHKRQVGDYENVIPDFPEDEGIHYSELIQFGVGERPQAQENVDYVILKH
Briefly: flow cytometry, phage clone on NALM-6 cells.

Test [3] has as its target T2, full-length human CD22. Description: flow cytometry, phage clone on Raji cells and Jurkat cells expressing full-length CD22.
The target of test [4] is T1, domains 5-7 of CD22 conjugated to green …. Description: flow cytometry, phage clone on Jurkat cells expressing domains 5-7 of CD22-GFP.

B1: phage clone 2 (anti-CD22 clone 2) (scFv, V domains shown)
VH: QVQLVESGGGLVQPGGSLRLSCAASGFTFSNYAMSWVRQAPGKGLEWVSSISGSGGSTYYADSVKGRFTISRDTSKNTLYLQMNSLRAEDTAVYYCARYGSAAWMDSWGQGTLVTVSS
VL: DIQLTQSPSSLSTSVGDRVTITCQASHDIRNYLNWYQQKPGKAPNLLIYAASNLQTGVPSRFSGRGSGTDFTLTISSLQPEDIATYYCQQYDGLPLTFGQGTRLEIKR
Take B1: the binding result (in test [1]; in the test with full-length human CD22 [2]) was “binds” each time.

B2: phage clone 1 (anti-CD22 clone 1) (scFv, V domains shown)
VH: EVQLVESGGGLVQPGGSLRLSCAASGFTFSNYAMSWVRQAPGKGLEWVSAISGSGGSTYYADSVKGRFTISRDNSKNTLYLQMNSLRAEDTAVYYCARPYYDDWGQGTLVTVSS
VL: QSVVTQPPSVSAAPGQKVTISCSGSSSNIGNNYVSWYQQLPGTAPKLLIYENNKRPSGIPDRFSGSKSGTSATLGITGLQTGDEADYYCGTWDSSLSAGAVFGGGTKLTVLG
For B2, the binding result (in the test with full-length human CD22 [3]; in test [4]) was “binds” in each case.
